In patent US20050287597:

B1: FLAG-tagged human SIRT1 (C-terminal FLAG tag) (protein)
chain: MADEAALALQPGGSPSAAGADREAASSPAGEPLRKRPRRDGPGLERSPGEPGGAAPEREVPAAARGCPGAAAAALWREAEAEAAAAGGEQEAQATAAAGEGDNGPGLQGPSREPPLADNLYDEDDDDEGEEEEEAAAAAIGYRDNLLFGDEIITNGFHSCESDEEDRASHASSSDWTPRPRIGPYTFVQQHLMIGTDPRTILKDLLPETIPPPELDDMTLWQIVINILSEPPKRKKRKDINTIEDAVKLLQECKKIIVLTGAGVSVSCGIPDFRSRDGIYARLAVDFPDLPDPQAMFDIEYFRKDPRPFFKFAKEIYPGQFQPSLCHKFIALSDKEGKLLRNYTQNIDTLEQVAGIQRIIQCHGSFATASCLICKYKVDCEAVRGDIFNQVVPRCPRCPADEPLAIMKPEIVFFGENLPEQFHRAMKYDKDEVDLLIVIGSSLKVRPVALIPSSIPHEVPQILINREPLPHLHFDVELLGDCDVIINELCHRLGGEYAKLCCNPVKLSEITEKPPRTQKELAYLSELPPTPLHVSEDSSSPERTSPPDSSVIVTLLDQAAKSNDDLDVSESKGCMEEKPQEVQTSRNVESIAEQMENPDLKNVGSSTGEKNERTSVAGTVRKCWPNRVAKEQISRRLDGNQYLFLPPNRYIFHGAEVYSDSEDDVLSSSSCGSNSDSGTCQSPSLEEPMEDESEIEEFYNGLEDEPDVPERAGGAGFGTDGDDQEAINEAISVKQEVTDMNYPSNKS
B2: FLAG-tagged human SIRT2 (C-terminal FLAG tag) (protein)
chain: MAEPDPSHPLETQAGKVQEAQDSDSDSEGGAAGGEADMDFLRNLFSQTLSLGSQKERLLDELTLEGVARYMQSERCRRVICLVGAGISTSAGIPDFRSPSTGLYDNLEKYHLPYPEAIFEISYFKKHPEPFFALAKELYPGQFKPTICHYFMRLLKDKGLLLRCYTQNIDTLERIAGLEQEDLVEAHGTFYTSHCVSASCRHEYPLSWMKEKIFSEVTPKCEDCQSLVKPDIVFFGESLPARFFSCMQSDFLKVDLLLVMGTSLQVQPFASLISKAPLSTPRLLINKEKAGQSDPFLGMIMGLGGGMDFDSKKAYRDVAWLGECDQGCLALAELLGWKKELEDLVRREHASIDAQSGAGVPNPSTSASPKKSPPPAKDEARTTEREKPQ
B3: FLAG-tagged human SIRT3 (C-terminal FLAG tag) (protein)
chain: MAFWGWRAAAALRLWGRVVERVEAGGGVGPFQACGCRLVLGGRDDVSAGLRGSHGARGEPLDPARPLQRPPRPEVPRAFRRQPRAAAPSFFFSSIKGGRRSISFSVGASSVVGSGGSSDKGKLSLQDVAELIRARACQRVVVMVGAGISTPSGIPDFRSPGSGLYSNLQQYDLPYPEAIFELPFFFHNPKPFFTLAKELYPGNYKPNVTHYFLRLLHDKGLLLRLYTQNIDGLERVSGIPASKLVEAHGTFASATCTVCQRPFPGEDIRADVMADRVPRCPVCTGVVKPDIVFFGEPLPQRFLLHVVDFPMADLLLILGTSLEVEPFASLTEAVRSSVPRLLINRDLVGPLAWHPRSRDVAQLGDVVHGVESLVELLGWTEEMRDLVQRETGKLDGPDK

target: synthetic Tat (72 amino acids) carrying an N-terminal biotin label and an acetyl group at position 50

Protein	in vitro Tat deacetylation (western blot with antibodies specific for acetylated lysine 50 in Tat)
B1	resulted in deacetylation of Tat lysine 50
B2	resulted in deacetylation of Tat lysine 50
B3	resulted in deacetylation of Tat lysine 50
